{"source": "the supplement of paper PMC12042874", "note": "± gives the uncertainty stated by the source."}
{"test": "amyloid nucleation score (Sup35N fusion, yeast selection) (log enrichment); library NNK3; higher = more nucleation; inactive = no reads after selection", "outline": "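The nucleation score is the DiMSum log enrichment of output over input reads, centred on the mode score of non-aggregating sequences. Only sequences with 100 or more input reads were scored, using Illumina sequencing of input and output plasmid inserts. Psi-negative yeast expressing Sup35N fused to peptides of 20 random codons were induced 24 hours with 100 μM copper sulfate and grown 7 days at 30°C on medium lacking adenine and uracil.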"}
{"substance": "SEKPIFSHPNLIYENGIGWI", "amyloid nucleation score": "inactive"}
{"substance": "SELHK", "amyloid nucleation score": "inactive"}
{"substance": "SEMLFIDQLCSSSVSKYTVI", "amyloid nucleation score": "inactive"}
{"substance": "SEPLYSVVLSDMDELWHCL", "amyloid nucleation score": "inactive"}
{"substance": "SESSNTELLSVLYIYAVWYL", "amyloid nucleation score": "inactive"}
{"substance": "SETKVIGQLRKTSNSEAHNA", "amyloid nucleation score": "0.422 ± 0.67"}
{"substance": "SEVRSLKHVGLCIQSMGSAL", "amyloid nucleation score": "inactive"}
{"substance": "SEYMNLYTVTTHRTPS", "amyloid nucleation score": "inactive"}
{"substance": "SFAGYRQIGRQGVWVIQVRH", "amyloid nucleation score": "inactive"}
{"substance": "SFCFSNDVA", "amyloid nucleation score": "inactive"}
{"substance": "SFDSLVISDTVSRDRCLQII", "amyloid nucleation score": "inactive"}
{"substance": "SFELVQWDS", "amyloid nucleation score": "inactive"}
{"substance": "SFFEYLPTQPTR", "amyloid nucleation score": "inactive"}
{"substance": "SFFLDILRVWYYNVPNVPAR", "amyloid nucleation score": "inactive"}
{"substance": "SFFPIPIWCD", "amyloid nucleation score": "inactive"}
{"substance": "SFFTGKAKGFYRQALRTYYR", "amyloid nucleation score": "-0.093 ± 0.59"}
{"substance": "SFIIVILYGDHALYFTYEAV", "amyloid nucleation score": "inactive"}
{"substance": "SFIIYCPVKKPQIVFHRLPS", "amyloid nucleation score": "2.36 ± 0.056"}
{"substance": "SFIVETVDQDVLG", "amyloid nucleation score": "inactive"}
{"substance": "SFLDMIRCDINLIYKRHRLG", "amyloid nucleation score": "inactive"}
{"substance": "SFLSWVKYWERSCPDHSIWF", "amyloid nucleation score": "inactive"}
{"substance": "SFLVSFTGVMLEFNCTCHLA", "amyloid nucleation score": "inactive"}
{"substance": "SFPLPS", "amyloid nucleation score": "inactive"}
{"substance": "SFPWSCPASYSYQGCWWERD", "amyloid nucleation score": "inactive"}
{"substance": "SFQFMFSRSSNRDFCILIQR", "amyloid nucleation score": "inactive"}
{"substance": "SFRFYVERL", "amyloid nucleation score": "inactive"}
{"substance": "SFRYAYWLSNNCH", "amyloid nucleation score": "0.378 ± 0.4"}
{"substance": "SFSRPVHSWAGHY", "amyloid nucleation score": "inactive"}
{"substance": "SFVHGKLILKFRSVNASRQS", "amyloid nucleation score": "inactive"}
{"substance": "SFVMGSAANL", "amyloid nucleation score": "inactive"}
{"substance": "SFVVN", "amyloid nucleation score": "inactive"}
{"substance": "SFWTMGNS", "amyloid nucleation score": "inactive"}
{"substance": "SFYIVVRWMYIRFVDQYLIY", "amyloid nucleation score": "inactive"}
{"substance": "SFYRMRVIHSLDYAKVKSTL", "amyloid nucleation score": "0.772 ± 0.2"}
{"substance": "SFYSNGKLLVILFATMMD", "amyloid nucleation score": "inactive"}
{"substance": "SGAFYAHHHLSRLLTDEDIS", "amyloid nucleation score": "inactive"}
{"substance": "SGCGLMQNGMSCLIEFTVAK", "amyloid nucleation score": "inactive"}
{"substance": "SGFDGTPFVLLSSDMFSNIG", "amyloid nucleation score": "inactive"}
{"substance": "SGFFSVAGIGWYTIYFCIYR", "amyloid nucleation score": "inactive"}
{"substance": "SGHSAFGKKGLRGM", "amyloid nucleation score": "inactive"}
{"substance": "SGKSFNVTGLPCMAWCRATD", "amyloid nucleation score": "inactive"}
{"substance": "SGLACRYCTMVGCNLNYNYW", "amyloid nucleation score": "2.58 ± 0.055"}
{"substance": "SGLKTFLEMSLHLCVLLARA", "amyloid nucleation score": "inactive"}
{"substance": "SGLKVCYNYEDGRMVSLGYH", "amyloid nucleation score": "inactive"}
{"substance": "SGLWW", "amyloid nucleation score": "inactive"}
{"substance": "SGSKKCAFRHVRIHFRLTAG", "amyloid nucleation score": "inactive"}
{"substance": "SGSLGFYTP", "amyloid nucleation score": "inactive"}
{"substance": "SGTSFISTKFSISLSIWLTA", "amyloid nucleation score": "inactive"}
{"substance": "SGVWTF", "amyloid nucleation score": "inactive"}
{"substance": "SHIVFM", "amyloid nucleation score": "inactive"}
{"substance": "SHNRCVEWFKWIF", "amyloid nucleation score": "0.885 ± 0.09"}
{"substance": "SHSAFEGKVC", "amyloid nucleation score": "inactive"}
{"substance": "SHSVYIFFVSTFVGSLWSLP", "amyloid nucleation score": "inactive"}
{"substance": "SHVKYNNMW", "amyloid nucleation score": "inactive"}
{"substance": "SHVWFDRGLIETEMSAHRY", "amyloid nucleation score": "inactive"}
{"substance": "SIDNLSPRPTWSGIMFSHCL", "amyloid nucleation score": "inactive"}
{"substance": "SIEMRLCQDWTQLESLT", "amyloid nucleation score": "-0.252 ± 0.66"}
{"substance": "SIESPSNIMS", "amyloid nucleation score": "inactive"}
{"substance": "SIGNAVYMIVGITGVRRRIY", "amyloid nucleation score": "inactive"}
{"substance": "SIGPVCIRTQSRPQITLRMM", "amyloid nucleation score": "inactive"}
{"substance": "SIGVRTRLKLCC", "amyloid nucleation score": "inactive"}
{"substance": "SILLVFHFKANVCLVFT", "amyloid nucleation score": "inactive"}
{"substance": "SILYD", "amyloid nucleation score": "inactive"}
{"substance": "SINSLFAESGLMLTFRMSSE", "amyloid nucleation score": "inactive"}
{"substance": "SIPPRMRCFLGCFWSISWDA", "amyloid nucleation score": "inactive"}
{"substance": "SIPWLIVINTSHLLVIFNAI", "amyloid nucleation score": "inactive"}
{"substance": "SISIFHNCF", "amyloid nucleation score": "2.66 ± 0.063"}
{"substance": "SISSEALVFYFRIAGTVIKR", "amyloid nucleation score": "inactive"}
{"substance": "SISSYMD", "amyloid nucleation score": "inactive"}
{"substance": "SITRWFHTVMSIFKFYFEFD", "amyloid nucleation score": "inactive"}
{"substance": "SITSFDFLINRVSMPSYNCG", "amyloid nucleation score": "inactive"}
{"substance": "SITWET", "amyloid nucleation score": "inactive"}
{"substance": "SIWWYNLVVI", "amyloid nucleation score": "inactive"}
{"substance": "SKAMWLSLM", "amyloid nucleation score": "inactive"}
{"substance": "SKCVGFIMNFLISSDNEDSN", "amyloid nucleation score": "2.27 ± 0.053"}
{"substance": "SKFFLPQTEFPQKGLTPITA", "amyloid nucleation score": "inactive"}
{"substance": "SKFLVNGAGLDELDVLVCLL", "amyloid nucleation score": "inactive"}
{"substance": "SKGLCPVWIVLYKACHSMIF", "amyloid nucleation score": "inactive"}
{"substance": "SKLFVSVSTTIYFEEPSPA", "amyloid nucleation score": "inactive"}
{"substance": "SKLYYHNQLCFILMHTA", "amyloid nucleation score": "inactive"}
